The results in this text go back to doi:10.1101/2021.07.06.451098.

Assay [1] addresses VAR2CSA ectodomain (residue 1-2630) of Plasmodium falciparum 3D7 (Plasmodium falciparum 3D7). As to the kind of experiment: SEC. In general terms: In gel filtration, larger molecules generally elute earlier.
Assay [2] shares this target. As to the kind of experiment: cross-linking.

As to “VAR2CSA ectodomain (residue 1-2630) of Plasmodium falciparum 3D7 (domain or fragment)”, the stoichiometry N in assay [1] and in assay [2] was 2 in each case.
